Test results: patent US20210122818A1 (BIOUNIVERSA S R L, published 2021)

Target: T1, recombinant BAG3 full-length protein (UniProt O95817 2-575, limits assumed)
T1 construct: mature; also called rBAG3; E. Coli rBAG3
Test: method for the murine antibody not stated (Example 3, Octet)

T1 sequence (O95817 2-575 limits assumed): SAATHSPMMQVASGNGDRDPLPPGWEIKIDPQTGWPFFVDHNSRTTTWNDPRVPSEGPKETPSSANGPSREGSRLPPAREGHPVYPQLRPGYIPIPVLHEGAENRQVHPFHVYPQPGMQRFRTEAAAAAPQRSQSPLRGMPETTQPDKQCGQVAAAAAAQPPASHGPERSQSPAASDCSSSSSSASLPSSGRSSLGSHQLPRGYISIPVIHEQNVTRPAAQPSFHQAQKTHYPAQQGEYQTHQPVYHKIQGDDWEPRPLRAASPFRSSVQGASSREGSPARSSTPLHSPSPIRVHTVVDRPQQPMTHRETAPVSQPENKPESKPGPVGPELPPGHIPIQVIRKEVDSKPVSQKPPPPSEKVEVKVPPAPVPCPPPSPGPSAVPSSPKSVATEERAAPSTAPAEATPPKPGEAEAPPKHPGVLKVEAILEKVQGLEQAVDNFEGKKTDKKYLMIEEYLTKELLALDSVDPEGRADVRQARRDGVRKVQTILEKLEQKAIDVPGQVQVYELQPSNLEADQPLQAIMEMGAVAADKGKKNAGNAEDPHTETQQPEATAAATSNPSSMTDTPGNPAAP

B1: AC-2 murine antibody (antibody, V domains shown)
VH: EVQLQQSGAELVKPGASVKLSCTASGFNIKDTYMYWVKQRPEQGLEWIGGVDPANGNTRYDPKFQGKATLTADTSSSTAYLQLSSLTSEDTAVYYCGRDGAMDYWGQGTSVTVSS
VL: DIVMSQSPSSLAVSVGEKVTMSCKSSQSLLYSSNQKNYLAWHQQKPGQSPKLLIYWASTRESGVPDRFTGSGSGTDFTLTISSVKAEDLAIYYCQQYYTYPLTFGAGTKLELK
notes: Murine hybridoma antibody; also called anti-BAG3 mouse antibody (AC2); murine anti-BAG AC-2 antibody
Question: With B1 as the binder, how does the Kd read?
Answer: 1 pM
